Substrate in data set [1]: CC(C)=CCC/C(C)=C/CC/C(C)=C/CO[P@@](=O)(O)OP(=O)(O)O
The data set is described as follows: cells, lysate or membranes. The settings on record: Mg2+ ([…] magnesium chloride in assay).

Substrate in data set [2]: O=C(O)Cc1cc(O)ccc1O
The data set is described as follows: cells, lysate or membranes. The settings on record: Mg2+ ([…] magnesium chloride in assay).

B1: homogentisate solanesyltransferase (CrHST) (Chlamydomonas reinhardtii) (protein)
chain: SAAVPAPLPNGGNDESFAQKLANFPNAFWKFLRPHTIRGTILGTTAVTAKVLMENPGCIDWALLPKALLGLVALLCGNGYIVGINQIYDVDIDVVNKPFLPVASGELSPALAWGLCLSLAAAGAGIVAANFGNLITSLYTFGLFLGTVYSVPPLRLKQYAVPAFMIIATVRGFLLNFGVYSATRAALGLPFEWSPAVSFITVFVTLFATVIAITKDLPDVEGDQANNISTFATRMGVRNVALLAIGLLMANYLGAIALALTYSTAFNVPLMAGAHAILAATLALRTLKLHAASYSREAVASFYRWIWNLFYAEYALLPFL
B1: the Michaelis constant (Km) in data set [1] came to 22.76 ± 1.70 µM; in data set [2] it was 48.54 ± 3.89 µM.
